Test: soluble on expression in E. coli; label from the status in PepcDB or PDB records

| Sequence | soluble on expression in E. coli |
| --- | --- |
| MSLTADTKRPLTLRDVSEASGVSEMTVSRVLRNRGDVSDATRARVLAAAKELGYVPNKIAGALASNRVNLVAVIIPSLSNMVFPEVLTGINQVLEDTELQPVVGVTDYLPEKEEKVLYEMLSWRPSGVIIAGLEHSEAARAMLDAAGIPVVEIMDSDGKPVDAMVGISHRRAGREMAQAILKAGYRRIGFMGTKMPLDYRARKRFEGFTEVLGKNGVEIEDREFYSGGSALAKGREMTQAMLERSPDLDFLYYSNDMIAAGGLLYLLEQGIDIPGQIGLAGFNNVELLQGLPRKLATMDACRLEIGRKAAEIIAKRLEDPEAEIETRITLEPKISYGDTLKREGHHHHHH | soluble |
| MGSDKIHHHHHHMRSMTDVRRYWISLLRKICEMPLELCASDRLKKSMPVEGKKSEERRKFTHLELLGRIFCGISPFLELNRESPSTDPEERKIATRLSEFAVKSLDVATNPNCKDYMNFKEGRQPLVDAAFLVEAILRAPKVLWEDLDVSTKKRLIRELKATRKIEPYFSNWLLFSAMIETFFFFAGEEWDSTKVDLILKNVESWYKGDGAYGDGPFFRWDYYNSFVIYPMTIDVLRIISEEKTEWKELYVKVLRRAQRYAVVLERMISPEGTFPIIGRSITYRTAVFHLLSQLSLLHLLPASLSPAQVRCALTAVLRRIFENPSTFDENGWLKIGVIGSQPSLGEEYITTGSLYLCTTVFLPLGLPTSDPFWRDPCKKWTNKKVWEGEDVAPDRALED | not soluble |
| MSLSEILTIGEPIVTFASKEPDVSLRDALEFHKILGGAELNVAIGAQRLGHSVDYISQVGEEPLGDYVIKTIKEHHVGTRYITRDADYWTAFQLKDRVTQGNPTTQNYRRGSAAAHLTPAVVDQIDLTDVRAAHMSGIFPAISATAEAAFRTLLKRLEAANILTTFDPNLRPTLWPSRGKMVTTLNELAGHAEIVLPGVEEGEILMGSTDPEKIADFYLRGARTKVVIVKVGPAGAYVKQQSGESYTVTGFKVAQVADTVGAGDGFAMGVLTALLEHKSLRSAVMRGNAVGALQVQTYGDNDGYPTPAGLQAFYQQEGVVEEGHHHHHH | not soluble |
| MFNLGSMFNLGPSEPVVGKASILLECPAGKAFKFIGENLFLNYPRWSPEVKELEQLTHGPVCLGTIARQVRVDQGHRSESKFRITIYEPDRRVAFAGISDPFRCVYELLDEQNSGSTRLLFKFELLEIQMIMRPFEPMIRTAVQDGAERTVQNIKRLVESEPGALEHHHHHH | soluble |
| MSLDIENTLLKQEAWRFIDNTTINPAFDAIQSFATDDTLCRSVGARMVPPTVRGWVHEKTVSLGIQDSKLPDIDKGIAFLQEQGYRVVVRNSGGLAVVLDSGVLNLSMVLPDAERGIAIERGYETMFTLIKDMFVDCNEVIEAKEIVNSYCPGSYDLSIQGQKFAGISQRRMAKGVAVQIYLAVEGDQAARSELIRDFYTISGKDKQTKYSFPDVKPEVMGTLSDLMKENMTVNGCLVRLFNSLRHYAGKLESGTLTPEELDLFPAYYERLIARNDKVLSEGHHHHHH | soluble |
| MSLIRANAGDWKKYTFELTPDKTDENARLAIYLEEKGRIQVDMVTLMNGADRQFCGLPLRNDIGQAMVDQGLRFLRYGGTMVNAPEYRFKKMIGDRAERPPYKGHWYTYSTNGFGIEDFLHFCEKAGFMPAYAVNVEESAQDMADMIEYLNGSVDTKWGKKRAENGHPEPYGLKYLEIGNEEVIWGDIEADYQHYIDRFNDIYEAVHAKDPEVQFIHSAWWRPESPNMEKVFKALDGKAAYWDYHPWTDDLGSHVNIDRELTDMKAKFLKWNPKTSMRCAIFEENGNLHNVQRAIVHATVQNVVRRHGDFILTTCAANALQPYLQNDNGWDQGQIFFTSGQVWGMPTFYAQQMSSAHHHPLRLWSETVGELDMTATTNEARDEVILHVVNTSSEVRETQVSLSGFIPKGNMEIYTLSGELNDENLPDTPTWILPKATWKQAPGSDFTYSFPGYSYTIVVLKEGHHHHHH | not soluble |
| MGSDKIHHHHHHMSKHVPKATLLTPSDVAFITDANRPVLTHTRNMAAEAGIEPHSHPRGQLLWAAKGLLRVRSENAVWVVPSTHAVWIPCNLPHQVNSETHAHTRNIYIDPSYDVRSLDTQVVMVTMTALMRELVLKLCESSHLMNSGQLHRLGLVAIDELETLDSLDAHLPAGSDPRLSRLIQKLIRHPTVNYTLTELAEMGGASVRTIERLFKAETGLTYRQWRQRFRLLNSLESLSQGESTTRVAHSLGYLSVSSFSAAFKMQFGCTPQDYPQHKPMKSKVNWFPDPVTGNN | not soluble |
| GPGSMMILPHAEEVELRRGSSPATITSTTGRVNRVAVDTSSEENQEAVSQDRLEGRDDAGKSPTTSASPGTSSKKDRFQATSAQVKGALSTPRRAVYEFHDMFGFLVTEEEKAAEDYERRNNGYSRAYLDKWEYMMTHWANVRQDTLKRYCRRGVPQPKRCAVWQHLLQSWGMKDRFPGVYMRLHSQPLDSKDLADVIARDLDRTFPTNRLFSVKSGQGQQILRRLLHAYANYNPGVGYCQGMGFLAATLILQVEEEEDAFWAFVAVMENAKYNMKAVFAPSFPQLQCAFYVFEALMRQKMPKLYAHLHDRHPIPPSFYAVHWFMTIFTYHFNFGLVSRIWDMFFCEGWKPVYRIALALLKIEERRLLSLNTDTELLLVLKGIQESKRPVELLKTALKIRFKSAYMNQLMAEFNAQPS | not soluble |
| MVQKLSRPSPDFLKGLKSILQGDHPSLKQLEQDINIFYMNQRQSQSMLEERKLYVALVRKYLKSEGVTKQLASQGIKLRGLSVFGSFPTHCASKDSDLDLCVCATATGNKKQLPVIILQAIFRDMMYSKEGQNIFGENVVSGISFVQTAKVPIIRFKINDVPVDLSATFDDNPRTSLAAKYINAYCQLDDRFKILVMFLKKWMKSEGRAEDHLRIYPNSYSIILLLIHVLQWYDILPNLHQTHSDLFHRGNFKLSDLAELRHEFKFPLDENTISMHRKRPSNDLTVVQLLYLFACQYSNHVVLLNYRFNMRNGEIEALSQKDQDYQITILDAYDVRNPGRSARNALDLVKTLEALKSLLVQPHEGMFKTVMEITRNRTYERVVPPPQVLYQDYDMQFGADPYNMPLVGSVEYQQWLEQVAMHHQIQMMQGQMMQQQIVFTAPEMYYYSQQQQQPHPIFGIQQSSQFF | not soluble |
| MRIPLVGKDSIESKDIGFTLIHEHLRVFSEAVRQQWPHLYNEDEEFRNAVNEVKRAMQFGVKTIVDPTVMGLGRDIRFMEKVVKATGINLVAGTGIYIYIDLPFYFLNRSIDEIADLFIHDIKEGIQGTLNKAGFVKIAADEPGITKDVEKVIRAAAIANKETKVPIITHSNAHNNTGLEQQRILTEEGVDPGKILIGHLGDTDNIDYIKKIADKGSFIGLDRYGLDLFLPVDKRNETTLRLIKDGYSDKIMISHDYCCTIDWGTAKPEYKPKLAPRWSITLIFEDTIPFLKRNGVNEEVIATIFKENPKKFFS | soluble |
| SRGHDATSWINRCLDCFSEGLSFRRQSKRPKMKVHYGDKAKDYDYNARKKQQSEEIDRILDKLKKSGYNSLTTEEKKSLFDASKK | not soluble |
| AGGLKYDLDLNLSHYKSVLKSMANPDYLYEYGALRTYVGGEIGEFWVYQTAGIFQNQAEVDEWNTAHGYKDQNGNWQPLQPVAKPGDIRFIDQNGDGMLDTNDRVKVGSGTPKVSLGFNINLTYKDFDLVANFYGDFGAKRYNYTKYQLERMDHVFNYGKNALNAWTPENPDTDIPRAVSGDPNKNSRTSTRFVENGDYLRLNNLQIGYNLPVKYCKKMGLSNLRIYVGATRLFTITNYKGYDPSTGSSVGQMGYDYAAIPLSRDFMMGLKFGF | not soluble |
| MAHHHHHHMFLRVPLFVAHLRLLPRQRIYMGAHCGGNIWANGRSVSVHFMVGWCYTMSRDVAEASVSFKPLRRLAHTPYSKERDEEFSSIGMGHEDMMVGHVLLDEVKYQPLIHVKVLPCHFLEARSDTGESQVVPTSMCVHHIREDDYAALMARFGNDTSPVARLWRVSEDVIYPSCD | not soluble |
| SVREANIKQATAEKQLKEAQGKIDVLQAEVAALKTLVLSSSPTSPTQEPLPGGKTPFKKGHTRNKSTSSAMSGSHQDLSVIQPIVKDCKEADLSLYNEFRLWKDEPTMDRTCPFLDKIYQEDIFPCLTFSKSELASAVLEAVENNTLSIEPVGLQPIRFVKASAVECGGPKKCALTGQSKSCKHRIKLGDSSNYYYISPFCRYRITSVCNFFTYIRYIQQGLVKQQDVDQMFWEVMQLRKEMSLAKLGYFKEEL | soluble |
| MNGAQWVVHALRAQGVKTVFGYPGGAIMPVYDALYDGGVEHLLCRHEQGAAMAAIGYARSTGKTGVCIATSGPGATNLITGLADALLDSVPVVAITGQVSAPFIGTDAFQEVDVLGLSLACTKHSFLVQSLEELPRIMAEAFEVANAGRPGPVLVDIPKDIQLASGELEPWFTTVANEATFPQADVEQARQMLEQAKKPMLYVGGGVGMAQAVPALRKFIAVTQMPVTCTLKGLGAVEADYPYYLGMLGMHGTKAANFAVQECDLLIAVGARFDDRVTGKLNTFAPNASVIHMDIDPAEMNKLRQAHVALQGDLNSLLPALQQPLKIDAWRQSCAELRAEHAWRYDHPGETIYAPLLLKQLSERKPADSVVTTDVGQHQMWSAQHMTYTRPENFITSSGLGTMGFGLPAAVGAQVARPNDTVICISGDGSFMMNVQELGTVKRKQLPLKIVLLDNQRLGMVRQWQQLFFQERYSETTLTDNPDFLMLASAFGIPGQHITRKDQVEAALDTMLASEGPYLLHVSIDELENVWPLVPPGASNSEMLEKLS | not soluble |
| MKLSQQSQAIIESAIQKAINKYTCGCEQTIVTDIHIQPNQNSGELFIYDDEDEELSSVTIDEWTAYEGDDFCEDAERIFRTVLCRMKENGSFDKLTILKPYSFVLVDEDKETISELLLVDDDTLLVNDELLKGLDKELDDFLKDLLEKLEHHHHHH | soluble |
| ATHEVHMLNKGESGAMVFEPAFVRAEPGDVINFVPTDKSHNVEAIKEILPEGVESFKSKINESYTLTVTEPGLYGVKCTPHFGMGMVGLVQVGDAPENLDAAKTAKMPKKARERMDAELAQVN | soluble |
| MEPPLWVFGYGSLIWDPGFPVARSVIARLDGWHRSFCMHSIHYRGTATDPGLVLALDAAPGGACLGVGFQVTPGAEAETLAALRKRELISNAYLERWLPVTLATGETVEAVSYVIDPDHGQYCGGLDLEAQAQIIARAAGERGPNRDYLLHTVAHLQSLGISDPDLCWLATRVRALGNDPVSAAALEHHHHHH | not soluble |
| MSLTQVIPTSLLQRLSLLFGCAGIVLGTAVANASSPASRDLFEIHVRPTLIKHCIQCHGETEQEGGLKLTSLDAMLAGGDSGPAIVPGNADDSLILEALRFESFEMPPAGQLDDPVVNGFASWIKAGAPWPEDLILTPMPIITEDDRDWWCYQPIADPVVPDVDDDSWCRNEIDRFVLDRLKQENLRPADEATASQLTRRLHFALTGLPPTCPPPSNQQNADSSADDWYEAQLNELLSSPAYGEHQARYWMDLVRYADSDGYNADHARPHAHLYRDYVIRSFNEDKPYDRFVCEQLAGDEIDPGNRDALIGTMYLRHWIYEWNQRDVEGQWQEIISDITETTADVFLAQGLKCARCHDHKFDPLLQRDFFALKAFFTPLLPREDFPVADVATREGHHHHHH | not soluble |
| MAHHHHHHMSLAPNTGSVELKAYSAHASLLLARGERIDKRAFDECRLPAIVREERVGGATVAGAGDGSPQSSASSNMTSTYTVLDGKSLAAVMYTDAYGTCIQCTVQGLLGPPRPEQPAAGRLNVHVEAPFVEHLSGGATSTNYRSFQYMIASGNADLPLRQLEGYIGTVLDGCFDLSQLSIYAGEACWVLKVSVLLLSVDGGLRAGSLHAALAALHKLHLPRIRLPNGDVIEGRQVQLSCMPVACTFGFLAGAQVRLVADTTAIEEHVADGLITVVVDEAERILSVHHTGRCPLLAQALTAAAQQWAAASGSMRKALYG | not soluble |
